According to patent US20240425603A1 (Janssen / Centocor, published 2024):
Several values for one entry are separate records, joined by “and”; a condition that tells them apart may be missing. Equal values may be shown once.

T1: NECTIN1 Isoform Gamma (NM_203286.1) (human, UniProt Q15223-3 31-352)
T1 construct: whole, on cells
T1 sequence (looked up): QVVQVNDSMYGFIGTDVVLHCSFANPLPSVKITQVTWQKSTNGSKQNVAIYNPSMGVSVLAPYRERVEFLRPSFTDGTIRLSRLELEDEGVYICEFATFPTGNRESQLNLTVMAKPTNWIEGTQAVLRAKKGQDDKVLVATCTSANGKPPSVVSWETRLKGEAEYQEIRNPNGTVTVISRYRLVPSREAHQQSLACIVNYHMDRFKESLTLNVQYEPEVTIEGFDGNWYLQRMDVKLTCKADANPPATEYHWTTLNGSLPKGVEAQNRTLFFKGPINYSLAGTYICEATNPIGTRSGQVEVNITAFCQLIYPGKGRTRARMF

T2: mouse VEGFR1 (soluble antigen of the KinExA and SPR affinity assays) (mouse, UniProt P35969 23-759, limits assumed)
T2 sequence (looked up): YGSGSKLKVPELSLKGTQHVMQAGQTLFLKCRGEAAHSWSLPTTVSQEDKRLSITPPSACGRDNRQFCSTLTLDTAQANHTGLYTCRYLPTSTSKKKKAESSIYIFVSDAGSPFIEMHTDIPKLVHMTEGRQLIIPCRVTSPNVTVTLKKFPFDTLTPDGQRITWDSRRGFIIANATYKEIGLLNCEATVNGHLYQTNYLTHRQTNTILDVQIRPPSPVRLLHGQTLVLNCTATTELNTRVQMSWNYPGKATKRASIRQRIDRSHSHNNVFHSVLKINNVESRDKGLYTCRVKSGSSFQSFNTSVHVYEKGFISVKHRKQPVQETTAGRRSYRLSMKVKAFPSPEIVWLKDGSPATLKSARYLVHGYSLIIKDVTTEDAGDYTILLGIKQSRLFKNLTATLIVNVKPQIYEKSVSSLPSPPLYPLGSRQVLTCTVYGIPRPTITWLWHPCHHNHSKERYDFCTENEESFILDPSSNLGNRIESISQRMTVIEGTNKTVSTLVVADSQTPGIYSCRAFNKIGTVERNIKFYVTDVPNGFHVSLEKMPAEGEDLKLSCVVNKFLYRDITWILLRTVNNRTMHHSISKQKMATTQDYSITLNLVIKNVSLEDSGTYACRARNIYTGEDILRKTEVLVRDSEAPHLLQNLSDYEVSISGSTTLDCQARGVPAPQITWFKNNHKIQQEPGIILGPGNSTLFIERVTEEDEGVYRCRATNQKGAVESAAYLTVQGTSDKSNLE

B1: VGFB54 (antibody, human IgG1, lambda, L234A L235A, V domains shown)
VH: EVQLLESGGGSVQPGGSLRLSCTASGFNFEDYGMNWVRQAPGKGLDWVSSINRNGDISTYHVDSVKGRFTISRDNSKNTLYLQMNSLRAEDTAIYYCTKNHDYHGMDVWGQGTTVTVSS
VL: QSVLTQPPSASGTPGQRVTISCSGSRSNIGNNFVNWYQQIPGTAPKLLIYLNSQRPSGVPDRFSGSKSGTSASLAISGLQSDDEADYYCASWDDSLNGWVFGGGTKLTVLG
notes: human IgG1 (L234A/L235A/D265S), lambda, 2H:2L; from OmniChicken
B2: VGFB78 (antibody, human IgG1, lambda, L234A L235A, V domains shown)
VH: EVQLLESGGGLVQPGGSLRLSCAASSFTFYNYDMTWVRQAPGKGLEWVAGIGTSGTDMYYADSVKGRFTISRDNSKNTLYLQMNSLRAEDTAIYYCAKDYYYYGMDVWGLGTTVTVSS
VL: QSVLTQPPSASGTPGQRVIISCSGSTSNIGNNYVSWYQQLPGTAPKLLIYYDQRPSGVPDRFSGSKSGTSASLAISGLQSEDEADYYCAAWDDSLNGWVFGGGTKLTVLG
notes: human IgG1 (L234A/L235A/D265S)
B3: VGFB82 (antibody, human IgG1, lambda, L234A L235A, V domains shown)
VH: EVQLLESGGGLVQPGGSLRLSCEASGFDFSTYAMNWVRQAPGKGLEWVATINSEGTITSHAPAVKGRFTISRDNSKNTAYVQMNSLRAEDSAVYYCSSTTGTTHGMDVWGRGTTVTVSS
VL: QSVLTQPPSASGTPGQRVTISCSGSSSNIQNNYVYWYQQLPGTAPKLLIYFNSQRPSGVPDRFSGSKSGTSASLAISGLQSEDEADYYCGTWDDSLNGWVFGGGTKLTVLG
notes: as for B2

Tests used:
[1] = target: T1, NECTIN1 Isoform Gamma (NM_203286.1); assay: Retrogenix cell microarray, fixed HEK293 cells; blank cells in Table 32 (topology TS and S)
Protocol: This human cell microarray methodology has been previously described in the literature (Freeth, J. et al, SLAS Discovery, 25 (2), 223-230, 2020). Primary screening was performed on slides arrayed with fixed HEK293 cells with each spot of HEK293 cells expressing either a unique protein from the cell surface-ome, a cell surface tethered human secreted protein, or a heterodimeric human cell surface receptor. In total, 5,528 unique gene products were represented in this primary screen (4,103 human plasma membrane proteins (+some untethered secreted proteins)+1,425 cell surface tethered human secreted proteins). Briefly, slides containing fixed transfected HEK293 cells were overlaid with a solution of test antibody (2 μg/mL), incubated, and washed. Binding was assessed using AlexaFluor647-conjugated anti-human IgG Fc detection antibody and fluorescence quantitation on ImageQuant. […] Located in the ER, off-target binding to CRELD2 was of less concern. Nectin-1, FGFR2, and ISLR, on the other hand, display broad tissue expression profiles. Cross-reactivity to these proteins is undesirable because binding to these targets might have a significant impact on pharmacokinetic and biodistribution profiles of the molecules. This off-target binding was subsequently confirmed by flow cytometry on live HEK293 cells transiently expressing these ‘off-target’ proteins identified in the primary screen.

[2] = target: T3, cynomolgus monkey VEGFR1 (soluble antigen of the KinExA and SPR affinity assays) (cynomolgus monkey); assay: SPR
[3] = target: T4, Recombinant human VEGFR1-Fc (R&D Systems) (human, UniProt P17948 27-687, limits assumed); assay: MSD ECL competition on plate-bound human VEGFR1-Fc; competitor biotin PlGF (2 nM)
T4 construct: bought; not shown: Fc part of the bought fusion, not described
Outline: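 Half-log antibody dilutions were pre-incubated for 30 minutes with VEGFR1 (human or mouse Fc fusion, or His-tagged cyno; 0.5 ug/ml) that had been captured for 1 hour at room temperature on blocked MSD 384 plates coated with Protein A/G or anti-His mAb. Biotinylated VEGFA (0.2 nM) or PlGF (2 nM) was then added and bound ligand was read with Sulfo-tagged streptavidin on an MSD SECTOR S 600 imager. IC50 and maximal percent inhibition were calculated from the electro-chemiluminescence readings.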

[4] = target: T2, mouse VEGFR1 (soluble antigen of the …); assay: KinExA, solution
Protocol: (§1) Kinetic exclusion assay (KEA; KinExA) was used to analyze the binding of anti-VEGFR1 antibodies to human, mouse and cynomolgus monkeys VEGFR1. KEA is a fluorescence-based solution method, and it is described in detail in the literature (Darling and Brault, 2004). To measure the affinity of an interaction, a series of solutions with a fixed concentration of one interactant (A) and varying concentrations of another interactant (B) are prepared and allowed to reach equilibrium. After equilibration, the concentration of free A is determined by flowing the equilibrated mixture through a column packed with beads modified with reactant B. Free A binds to the beads and is then detected using a fluorescently labeled polyclonal antibody.
(§2) Briefly, fixed concentrations (300 pM, 60 pM, 12 pM, 2.4 or 0.5 pM) of Ab were used to prepare a serial dilution of the antigen (2 nM to 0.52 pM, or 800 pM to 5.37 fM). The complex titrations were incubated at RT to reach binding equilibrium for at least 2 days. After incubation, the samples were run on the KinExA3200 or KinExA4000 instrument to assess free antibody in the reaction. During these studies some of the data were rejected because the experiments failed or failed the acceptance criteria. For mouse VEGFR1 the 60 and 300 pM concentrations were rejected due to high titrant related NSB. The dissociation equilibrium constant, (KD), was determined using the n-curve analysis feature of the KinExA Pro software. This program uses nonlinear least-square regression analysis of the globally fitted data to a 1:1 binding model. (CI=confidence interval).

[5] = target: T3, cynomolgus monkey VEGFR1 (soluble …); assay: KinExA, solution
Protocol: as §1, §2

T4 sequence (P17948 27-687 limits assumed): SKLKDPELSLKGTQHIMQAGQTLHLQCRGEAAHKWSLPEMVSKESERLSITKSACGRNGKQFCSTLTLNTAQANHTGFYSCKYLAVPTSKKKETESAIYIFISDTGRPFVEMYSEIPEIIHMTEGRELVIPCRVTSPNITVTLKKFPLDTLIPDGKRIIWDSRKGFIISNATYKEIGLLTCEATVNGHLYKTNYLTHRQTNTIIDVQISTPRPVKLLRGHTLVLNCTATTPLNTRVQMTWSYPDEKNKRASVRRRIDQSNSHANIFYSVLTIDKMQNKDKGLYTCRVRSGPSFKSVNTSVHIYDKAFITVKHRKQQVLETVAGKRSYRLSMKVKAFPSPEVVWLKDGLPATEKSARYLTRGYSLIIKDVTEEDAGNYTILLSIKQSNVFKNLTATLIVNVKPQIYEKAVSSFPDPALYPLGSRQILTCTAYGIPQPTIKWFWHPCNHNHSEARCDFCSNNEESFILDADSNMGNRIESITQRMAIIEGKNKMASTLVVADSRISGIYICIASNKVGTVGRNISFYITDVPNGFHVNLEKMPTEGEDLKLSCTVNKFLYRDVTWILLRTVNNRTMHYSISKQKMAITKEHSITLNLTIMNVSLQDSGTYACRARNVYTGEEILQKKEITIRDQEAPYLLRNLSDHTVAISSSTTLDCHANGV

Binder	binding result [1]	Kd [2]	IC50 [3]	Max % Inh. [3]	Kd [4]	Kd [5]
B1	no binding (tested: 2 µg/mL)	0.016 nM and 0.018 nM	0.159 nM	100%	–	–
B2	–	–	0.335 nM	100%	0.00385 nM	0.00071 nM
B3	no binding (tested: 2 µg/mL)	0.038 nM and 0.023 nM	0.183 nM	100%	0.023 nM	0.0003 nM
